Test results published in publication PMC10939776.

How the values were obtained:
[1] = molecular target: Copalyl diphosphate synthase from Penicillium fellutanum (PfCPS), full-length wild type (Penicillium fellutanum); assay: SEC
[2] = molecular target: Copalyl diphosphate synthase from Penicillium fellutanum (PfCPS), full-length wild type (Penicillium fellutanum); assay: cryo-EM structure

Copalyl diphosphate synthase from Penicillium fellutanum (PfCPS), full-length wild type (enzyme)
stoichiometry N [1]: 6 | stoichiometry N [2]: 6
